From patent publication US20060258570A1

Molecular target: fibrinogen
Assay: cell-based or functional assay

Final Abs (405 nm) of thrombin-induced clot at [Decorin] 0.2 mM: 0.16 Abs 405 nm
Final Abs (405 nm) of thrombin-induced clot at [Decorin] 0.4 mM: 0.145 Abs 405 nm
Final Abs (405 nm) of thrombin-induced clot at [Decorin] 1.0 mM: 0.12 Abs 405 nm
Final Abs (405 nm) of thrombin-induced clot at [Decorin] 2.0 mM: 0.113 Abs 405 nm
Rate (mAbs/min) of thrombin-induced clotting at [Decorin] 0.2 mM: 61.8 mAbs/min
Rate (mAbs/min) of thrombin-induced clotting at [Decorin] 0.4 mM: 55 mAbs/min
Rate (mAbs/min) of thrombin-induced clotting at [Decorin] 1.0 mM: 38.8 mAbs/min
Rate (mAbs/min) of thrombin-induced clotting at [Decorin] 2.0 mM: 34.5 mAbs/min
Substance: decorin core protein
